In the supplement of paper PMC12667976:

B1: library; numbered along this chain (parent)
chain: MATDAALRRLLRLHRTEIAVAVDSAFPLLHALADHDVVPEDKFQETLHLKEKEGCPQAFHALLSWLLTQDSTAILDFWRVLFKDYNLERYGRLQPILDSFPKDVDLSQPRKGRKPPAVPKALVPPPRLPTKRKASEEARAAAPAALTPRGTASPGSQLKAKPPKKPESSAEQQRLPLGNGIQTMSASVQRAVAMSSGDVPGARGAVEGILIQQVFESGGSKKCIQVGGEFYTPSKFEDSGSGKNKARSSSGPKPLVRAKGAQGAAPGGGEARLGQQGSVPAPLALPSDPQLHQKNEDECAVCRDGGELICCDGCPRAFHLACLSPPLREIPSGTWRCSSCLQATVQEVQPRAEEPRPQEPPVETPLPPGLRSAGEEVRGPPGEPLAGMDTTLVYKHLPAPPSAAPLPGLDSSALHPLLCVGPEGQQNLAPGARCGVCGDGTDVLRCTHCAAAFHWRCHFPAGTSRPGTGLRCRSCSGDVTPAPVEGVLAPSPARLAPGPAKDDTASHEPALHRDDLESLLSEHTFDGILQWAIQSMARPAAPFPS

Variants of: B1
Assay: AIRE transcriptional activation functional score (insulin promoter-GFP; nonsense median 0, synonymous median 1) (normalised score); higher = higher AIRE activity (more reporter activation)
Conditions: with insulin promoter-GFP reporter in HEK293
Procedure, shortened: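 Functional scores come from comparing select with non-select enrichment of each variant and subtracting wild type. Codon-optimized AIRE NNN-codon libraries across three regions were integrated via Bxb1 recombinase into HEK293 landing-pad cells with an insulin core promoter-GFP reporter, and integrants sorted at day 7 were expanded 7 days before top 10% GFP and unselected populations were tile-sequenced. Variants needed 10 counts per million in non-select, and values were rescaled to nonsense median 0 and synonymous median 1 before averaging over biological replicates.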

AIRE transcriptional activation functional score: each site, then its substitutions
Q349: S 1.26; T 1.12; V 1.13; W 1.55; Y 1.08
P350: A 1.13; C 0.761; D 1.09; E 1.04; F 1.25; G 1.14; H 1.47; I 1.14; K 0.93; L 1.17; M 1.11; N 1.37; Q 0.912; R 1.18; S 0.947; T 0.866; V 1.01; W 1.02; Y 0.767
R351: A 1.34; C 1.19; D 0.673; E 0.835; F 1.16; G 1.02; H 0.73; I 0.573; K 0.457; L 0.985; M 1.07; N 1.56; P 1.02; Q 1.44; S 1.01; T 0.615; V 0.812; W 0.833; Y 0.693
A352: C 1.1; D 1.08; E 0.933; F 1.38; G 0.813; H 0.902; I 1.08; K 0.997; L 1.06; M 1.13; N 1.01; P 0.925; Q 0.697; R 0.916; S 1; T 1.32; V 0.882; W 1.31; Y 0.899
E353: A 1.07; C 1.2; D 0.963; F 1.25; G 0.959; H 0.837; I 1.13; K 1.17; L 1.18; M 1.19; N 0.963; P 1.12; Q 1.18; R 1.14; S 1.14; T 1.19; V 1.15; W 1.17; Y 1.42
E354: A 0.949; C 1.16; D 1.22; F 1.33; G 1.13; H 1.1; I 1.13; K 0.669; L 1.05; M 1.47; N 0.818; P 0.835; Q 0.948; R 1.14; S 0.901; T 0.99; V 1.08; W 1.16; Y 1.38
P355: A 0.981; C 1.05; D 1.13; E 0.969; F 1; G 1.06; H 1.08; I 1.01; K 1.2; L 1.11; M 0.914; N 1.11; Q 1.24; R 1.04; S 0.93; T 1.09; V 1; W 1.32; Y 1.49
R356: A 0.824; C 1.05; D 1.05; E 1.09; F 1.15; G 1.06; H 0.935; I 1.03; K 0.935; L 0.928; M 1.16; N 1.01; P 0.873; Q 0.912; S 0.974; T 0.752; V 0.975; W 0.964; Y 1.03
P357: A 1.01; C 1.23; D 0.863; E 1.05; F 1.27; G 0.884; H 0.925; I 1.11; K 0.713; L 1.2; M 1.29; N 1.32; Q 1.06; R 1.07; S 0.935; T 1.1; V 0.974; W 1.17; Y 1.34
Q358: A 0.941; C 0.97; D 0.761; E 1.19; F 1.16; G 1.34; H 1.12; I 1.1; K 1.02; L 1.14
